Source: patent US20230043577

Experiments:
Test in all cases: EMSA
[1] = target: MeCP2 MBD (hMeCP2[90-181]) wild type (Homo sapiens) (UniProt P51608)
[2] = system: MeCP2 MBD R133C R133C (Homo sapiens); details: same buffer
[3] = system: MeCP2 MBD S134C S134C (Homo sapiens); details: same buffer
[4] = unmodified C in CpG of one strand, 5hmC in the other
[5] = 5hmC in CpG of one strand, 5fC in the other
[6] = 5mC in CpG of one strand, 5fC in the other
[7] = 5mC in CpG of one strand, 5hmC in the other

Sequence of MeCP2 MBD (hMeCP2[90-181]) wild type (Homo sapiens) (P51608 90-181): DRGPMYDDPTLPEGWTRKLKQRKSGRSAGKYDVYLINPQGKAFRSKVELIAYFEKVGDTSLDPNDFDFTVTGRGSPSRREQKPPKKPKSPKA

24-mer C/hmC CpG duplex showed a Kd ([1]; unmodified C in CpG of one strand, 5hmC in the other, same buffer) of 1080 nM, a Kd [2, 4] of 8100 nM and a Kd [3, 4] of 7600 nM.
24-mer hmC/fC CpG duplex gave a Kd ([1]; 5hmC in CpG of one strand, 5fC in the other, same buffer) of 540 nM, a Kd [2, 5] of 1630 nM and a Kd [3, 5] of 4600 nM.
Substance 24-mer hmC/hmC CpG duplex has a Kd ([1]; 5hmC in CpG on both strands, same buffer) of 970 nM, a Kd ([2]; 5hmC in CpG on both strands) of 2560 nM and a Kd ([3]; 5hmC in CpG on both strands) of 7600 nM.
24-mer mC/fC CpG duplex gave a Kd ([1]; 5mC in CpG of one strand, 5fC in the other, same buffer) of 197 nM, a Kd [2, 6] of 540 nM and a Kd [3, 6] of 790 nM.
24-mer mC/hmC CpG duplex gave a Kd ([1]; 5mC in CpG of one strand, 5hmC in the other, same buffer) of 224 nM, a Kd [2, 7] of 660 nM and a Kd [3, 7] of 1150 nM.
Substance 24-mer mC/mC CpG duplex has a Kd ([1]; 5mC in CpG on both strands, room temperature, 50 ng/uL poly(dA)poly(dT), 20 mM HEPES pH 7.3 buffer) of 27 nM, a Kd ([2]; 5mC in CpG on both strands) of 118 nM and a Kd ([3]; 5mC in CpG on both strands) of 117 nM.
